The chains are these.
B1: SWI5-dependent HO expression protein 3 (Saccharomyces cerevisiae), P38272 (parent)
chain: MSDQDNTQTSSSKLAPHHNIFMANLESSPTKDRNTSSQNASSSRVIESLHDQIDMLTKTNLQLTTQSQNLLSKLELAQSKESKLLENLNLLKNENENLNSIFERKNKKLKELEKDYSELSNRYNEQKEKMDQLSKLAKNSSAIEQSCSEKLQNMEVNYNSLLESQNLYRDHYSDEISKLNEKIGLLELELSNQNLNYGSDTSSNSDIELNLNKFNDSVKDLKSLETEKDSKLSKIITHSLDELNLQSWLNLYQTNENLISTFAEKMDLKDVLKRNDEKISNKGAVVQTLKKNVQTQVESNNADALSSNNAQDMLPIKMVKLRKTPNTNDSSSNGNSSNNKRRSFYTASPLLSSGSIPKSASPVLPGVKRTASVRKPSSSSSKTNVTHNNDPSTSPTISVPPGVTRTVSSTHKKKGNSMVVHGAQS

In the assay the parent is B1. To be noted: with she2_yeast SHE2, P36068.
Sequence of she2_yeast SHE2, P36068 (P36068 whole entry): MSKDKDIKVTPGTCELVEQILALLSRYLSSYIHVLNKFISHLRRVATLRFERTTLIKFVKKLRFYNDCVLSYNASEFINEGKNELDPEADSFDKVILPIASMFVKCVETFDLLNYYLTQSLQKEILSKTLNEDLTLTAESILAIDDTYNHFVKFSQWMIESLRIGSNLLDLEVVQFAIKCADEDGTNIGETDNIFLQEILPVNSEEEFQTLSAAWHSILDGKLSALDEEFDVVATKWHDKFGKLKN
As for L364A;V367A, the “effect of a mutation on the interaction” value is reported as “disrupting interaction”.

Values taken from IntAct's records for PubMed 21526221.
